Laboratory results published in the RNAGym collection of RNA variant scans (doi:10.7554/elife.80360).

B1: CPEB3 Ribozyme (parent)
chain: GGGGGCCACAGCAGAAGCGUUCACGUCGCGGCCCCUGUCAGAUUCUGGUGAAUCUGCGAAUUCUGCUGU

Variants of: B1
Experiment: self-cleavage, relative activity (ratio to wild type); higher = more cleavage; co-transcriptional

Going from GGGGGCCACAGCAGAAGCGUUCACGACGCAGCCCCUGUCAGAUUCUGGUGAAUCUGCGAAUUCUGCUGU to GGGGGCCACAGCAGAAGCGUUCACGACGCGGCCCCUGUCAGAUUCUGGUGAAUCUGGGAAUUCUGCUGU, the self-cleavage falls from 0.36 to 0.216.

Going from GGGGGCCACAGCAGAAGCGUUCACGACGCGGCCCCUGUCAGAUUCUGGUGAAUCUGUGAAUUCUGCUGU to GGGGGCCACAGCAGAAGCGUUCACGACGCGGCCCCUUUCAGAUUCUGGUGAAUCUGCGAAUUCUGCUGU, the self-cleavage falls from 0.39 to 0.222.

First: GGGGGCCACAGCAGAAGCGUUCACGACGCGGCCCCUAUCAGAUUCUGGUGAAUCUGCGAAUUCUGCUGU
Second: GGGGGCCACAGCAGAAGCGUUCACGACGCGGCCCCUCUCAGAUUCUGGUGAAUCUGCGAAUUCUGCUGU
The self-cleavage of the first is higher: 0.287 for the first, 0.209 for the second.

Going from GGGGGCCACAGCAGAAGCGUUCACGACGCGGCCCCUGCCAGAUUCUGGUGAAUCUGCGAAUUCUGCUGU to GGGGGCCACAGCAGAAGCGUUCACGACGCGGCCCCUGGCAGAUUCUGGUGAAUCUGCGAAUUCUGCUGU, the self-cleavage falls from 0.419 to 0.244.

First: GGGGGCCACAGCAGAAGCGUUCACGACGCGGCCCCUGACAGAUUCUGGUGAAUCUGCGAAUUCUGCUGU
Second: GGGGGCCACAGCAGAAGCGUUCACGACGCGGCCCCUGUCAGAUUCUGCUGAAUCUGCGAAUUCUGCUGU
The self-cleavage of the first is lower: 0.423 for the first, 0.882 for the second.

Going from GGGGGCCACAGCAGAAGCGUUCACGACGCGGCCCCUGUCAGAUUCUGAUGAAUCUGCGAAUUCUGCUGU to GGGGGCCACAGCAGAAGCGUUCACGACGCGGCCCCUGUCAGAUUCUGGUGAAUUUGCGAAUUCUGCUGU, the self-cleavage rises from 0.846 to 0.909.

Going from GGGGGCCACAGCAGAAGCGUUCACGACACGGCCCCUGUCAGAUUCUGGUGAAUCUGCGAAUUCUGCUGU to GGGGGCCACAGCAGAAGCGUUCACGACCCGGCCCCUGUCAGAUUCUGGUGAAUCUGCGAAUUCUGCUGU, the self-cleavage falls from 0.216 to 0.114.

Going from GGGGGCCACAGCAGAAGCGUUCACGACGCGACCCCUGUCAGAUUCUGGUGAAUCUGCGAAUUCUGCUGU to GGGGGCCACAGCAGAAGCGUUCACGACGCGGCCCAUGUCAGAUUCUGGUGAAUCUGCGAAUUCUGCUGU, the self-cleavage falls from 0.511 to 0.228.

Going from GGGGGCCACAGCAGAAGCGUUCACGACGCGGCCCUUGUCAGAUUCUGGUGAAUCUGCGAAUUCUGCUGU to GGGGGCCACAGCAGAAGCGUUCACGACGCGGCCCCUGUCAGAUUCAGGUGAAUCUGCGAAUUCUGCUGU, the self-cleavage rises from 0.644 to 0.906.

Going from GGGGGCCACAGCAGAAGCGUUCACGACGCGGCCCCUGUCAGAUUCUGGUGAAUCUUCGAAUUCUGCUGU to GGGGGCCACAGCAGAAGCGUUCACGACGCGGCCCCUGUCAGAUUCUGGUGAAUCUCCGAAUUCUGCUGU, the self-cleavage falls from 0.752 to 0.357.

Going from GGGGGCCACAGCAGAAGCGUUCACGACGCGGCCCCUGUCAGAUUCUGGUGAAUCUGCGAAUUCUACUGU to GGGGGCCACAGCAGAAGCGUUCACGACGCGGCCCCUGUCACAUUCUGGUGAAUCUGCGAAUUCUGCUGU, the self-cleavage falls from 0.736 to 0.54.

First: GGGGGCCACAGCAGAAGCGUUCACGACGCGGCCCCGGUCAGAUUCUGGUGAAUCUGCGAAUUCUGCUGU
Second: GGGGGCCACAGCAGAAGCGUUCACGACGCGGCCCCCGUCAGAUUCUGGUGAAUCUGCGAAUUCUGCUGU
The self-cleavage of the first is lower: 0.145 for the first, 0.403 for the second.

Compared with GGGGGCCACAGCAGAAGCGUUCACGACGCGGCCCCAGUCAGAUUCUGGUGAAUCUGCGAAUUCUGCUGU, GGGGGCCACAGCAGAAGCGUUCACGACGCGGCCCCUGUCAGAUUCUGGUGAAUCUGCGAAUUAUGCUGU is higher in self-cleavage: 0.15 for the first, 0.51 for the second.

Compared with GGGGGCCACAGCAGAAGCGUUCACGACGCGGCCCCUGUCAGAUUCUGGUGAAUCUGCGAAUUCUGUUGU, GGGGGCCACAGCAGAAGCGUUCACGACGCGGCCCCUGUCAGAUUCUGGUGAAUCUGCGAAUUCUGGUGU is lower in self-cleavage: 0.946 for the first, 0.635 for the second.

First: GGGGGCCACAGCAGAAGCGUUCACGACGCGGCCCCUGUCAGAUUCUGGUGAAUCUGCGAAUUCUGAUGU
Second: GGGGGCCACAGCAGAAGCGUUCACGACGCGGCCCCUGUCAGAUUCUGGUGAAUCUGCGAAUUCUGCUAU
The self-cleavage of the first is lower: 0.637 for the first, 0.941 for the second.

Going from GGGGGCCACAGCAGAAGCGUUCACGACGCGGCCCCUGUCAGAUUCUUGUGAAUCUGCGAAUUCUGCUGU to GGGGGCCACAGCAGAAGCGUUCACGACGCGGCCCCUGUCAGAUUCUAGUGAAUCUGCGAAUUCUGCUGU, the self-cleavage falls from 0.932 to 0.88.

Going from GGGGGCCACAGCAGAAGCGUUCACGACGCGGCCCCUGUCAGAUACUGGUGAAUCUGCGAAUUCUGCUGU to GGGGGCCACAGCAGAAGCGUUCACGACGCGGCCCCUGUCAGAUGCUGGUGAAUCUGCGAAUUCUGCUGU, the self-cleavage rises from 0.843 to 0.85.

Compared with GGGGGCCACAGCAGAAGCGUUCACGACGCGGCCCCUGUCAGAUUCUGGUAAAUCUGCGAAUUCUGCUGU, GGGGGCCACAGCAGAAGCGUUCACGACGCGGCCCCUGUCAGAUUCUGGUCAAUCUGCGAAUUCUGCUGU is higher in self-cleavage: 0.871 for the first, 0.95 for the second.

Compared with GGGGGCCACAGCAGAAGCGUUCACGACGCGGCCUCUGUCAGAUUCUGGUGAAUCUGCGAAUUCUGCUGU, GGGGGCCACAGCAGAAGCGUUCACGACGCGGCCCCUGUCAGAGUCUGGUGAAUCUGCGAAUUCUGCUGU is lower in self-cleavage: 0.93 for the first, 0.707 for the second.

Variant GGGGGCCACAGCAGAAGCGUUCACGACGCGGCCCCUGUCAGACUCUGGUGAAUCUGCGAAUUCUGCUGU has a self-cleavage of 0.802.
